Experimental data: the supplement of paper PMC9233669
This sample holds only a part of the variants without activity.

Experiments:
biotinyl-Phe-oxazolone = assay: self-aminoacylation, catalytic enhancement (BFO) (fold over background); higher = more active; k-Seq, kA / k0A0; sequences stand for … in GGGAAUGGAUCCACAUCUACGAAUUC…UUCACUGCAGACUUGACGAAGCUG
Procedure, shortened: (§1)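 Each biotinyl-aminoacyl-oxazolone, at 2–1250 μM, was incubated with mutagenized RNA pools (0.43 μM) carrying a 21-nt variable region. The 50 μL reactions contained HEPES/NaCl/KCl/MgCl2/CaCl2 buffer with 5% acetonitrile at pH 6.9–7.0 and ran for 90 minutes at room temperature. After streptavidin capture, RNA was measured by qPCR in triplicate and by Illumina sequencing, and catalytic enhancement was calculated as median kA over the uncatalyzed rate from a pseudo-first-order fit of per-sequence fraction reacted.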

biotinyl-Ile-oxazolone = assay: self-aminoacylation, catalytic enhancement (BIO) (fold over background); higher = more active; k-Seq, kA / k0A0; sequences stand for … in GGGAAUGGAUCCACAUCUACGAAUUC…UUCACUGCAGACUUGACGAAGCUG
Procedure, shortened: as §1

biotinyl-Met-oxazolone = assay: self-aminoacylation, catalytic enhancement (BMO) (fold over background); higher = more active; k-Seq, kA / k0A0; sequences stand for … in GGGAAUGGAUCCACAUCUACGAAUUC…UUCACUGCAGACUUGACGAAGCUG
Procedure, shortened: as §1

biotinyl-Val-oxazolone = assay: self-aminoacylation, catalytic enhancement (BVO) (fold over background); higher = more active; k-Seq, kA / k0A0; sequences stand for … in GGGAAUGGAUCCACAUCUACGAAUUC…UUCACUGCAGACUUGACGAAGCUG
Procedure, shortened: as §1

biotinyl-Leu-oxazolone = assay: self-aminoacylation, catalytic enhancement (BLO) (fold over background); higher = more active; k-Seq, kA / k0A0; sequences stand for … in GGGAAUGGAUCCACAUCUACGAAUUC…UUCACUGCAGACUUGACGAAGCUG
Procedure, shortened: as §1

biotinyl-Trp-oxazolone = assay: self-aminoacylation, catalytic enhancement (BWO) (fold over background); higher = more active; k-Seq, kA / k0A0; sequences stand for … in GGGAAUGGAUCCACAUCUACGAAUUC…UUCACUGCAGACUUGACGAAGCUG
Procedure, shortened: as §1

Row | Sequence | self-aminoacylation (biotinyl-Phe-oxazolone) | self-aminoacylation (biotinyl-Ile-oxazolone) | self-aminoacylation (biotinyl-Met-oxazolone) | self-aminoacylation (biotinyl-Val-oxazolone) | self-aminoacylation (biotinyl-Leu-oxazolone) | self-aminoacylation (biotinyl-Trp-oxazolone)
1 | CUACUUUAAACAAUCGAUCUG [Fam1A.1 aminoacylation ribozyme variant] | 0.815 | 0.768 | 0.675 | 0.741 | 0.683 | 0.852
2 | CUACUUUAAACAAUCGGUCAG [Fam1A.1 aminoacylation ribozyme variant] | 0.862 | 0.617 | 0.716 | 0.655 | 0.588 | 0.417
3 | CUAGACUUCAAGCAAUCGGUC [Fam1B.1 aminoacylation ribozyme variant] | 34.1 | 0.981 | 1.05 | 0.979 | 1.37 | 16.2
4 | CUAGAUCAAACAAUCGGUCUG [Fam1A.1 aminoacylation ribozyme variant] | 2.24 | 0.703 | 0.578 | 0.798 | 0.708 | 1.22
5 | CUAGUUCAAACAAUAGGUCUG [Fam1A.1 aminoacylation ribozyme variant] | 0.923 | 1.04 | 0.949 | 0.952 | 1.09 | 0.721
6 | CUAGUUCAAACAAUCGGGCUG [Fam1A.1 aminoacylation ribozyme variant] | 2.64 | 1.54 | 1.4 | 1.42 | 1.79 | 2.72
7 | CUAGUUCAAACAAUCGGUCUA [Fam1A.1 aminoacylation ribozyme variant] | 2.81 | 0.813 | 0.777 | 0.759 | 0.647 | 1.43
8 | CUAGUUCAACCAAUCGGUCUG [Fam1A.1 aminoacylation ribozyme variant] | 3.36 | 1 | 0.955 | 0.913 | 1.06 | 2.82
9 | CUAGUUGAAACAAUCGGUCUG [Fam1A.1 aminoacylation ribozyme variant] | 0.861 | 0.923 | 0.974 | 0.828 | 0.841 | 0.834
10 | CUAUACUUCAAGCAAUCGGUC [Fam1B.1 aminoacylation ribozyme variant] | 21.3 | 0.782 | 0.837 | 0.936 | 1.06 | 9.69
11 | CUAUCUCAAACAAUCGGUCUG [Fam1A.1 aminoacylation ribozyme variant] | 1.87 | 0.789 | 0.856 | 0.781 | 0.628 | 1.35
12 | CUAUUUCAAACAAGCGGUCUG [Fam1A.1 aminoacylation ribozyme variant] | 0.738 | 1.01 | 0.882 | 0.933 | 1.02 | 0.77
13 | CUAUUUCAAACACUCGGUCUG [Fam1A.1 aminoacylation ribozyme variant] | 1.36 | 0.995 | 0.95 | 0.921 | 0.875 | 0.925
14 | CUAUUUCAAGCAAUCGGUCUG [Fam1A.1 aminoacylation ribozyme variant] | 1.61 | 0.881 | 0.741 | 0.795 | 0.996 | 0.883
15 | CUAUUUCACACAAUCGGUCUG [Fam1A.1 aminoacylation ribozyme variant] | 0.675 | 0.88 | 0.848 | 0.774 | 0.766 | 0.617
16 | CUAUUUCUAACAAUCGGUCUG [Fam1A.1 aminoacylation ribozyme variant] | 0.973 | 0.913 | 0.818 | 0.787 | 0.824 | 0.668
17 | CUCCUUCAAAAAAUCGGUCUG [Fam1A.1 aminoacylation ribozyme variant] | 11.8 | 1.16 | 1.09 | 1.01 | 1.3 | 9.62
18 | CUCCUUCAAACAAUCGAUCUG [Fam1A.1 aminoacylation ribozyme variant] | 2.82 | 0.586 | 0.571 | 0.705 | 0.589 | 1.2
19 | CUCCUUCAAACAAUCGGUAUG [Fam1A.1 aminoacylation ribozyme variant] | 13.8 | 0.742 | 1.07 | 0.866 | 1.24 | 11.2
20 | CUCCUUCAAACAAUCGGUCUC [Fam1A.1 aminoacylation ribozyme variant] | 40.8 | 1.11 | 1.19 | 0.933 | 1.75 | 26.2
21 | CUCCUUCAAACAAUCGGUUUG [Fam1A.1 aminoacylation ribozyme variant] | 43.9 | 1.17 | 1.3 | 1.4 | 1.89 | 30.6
22 | CUCCUUCAAACAAUCGUUCUG [Fam1A.1 aminoacylation ribozyme variant] | 1.68 | 0.51 | 0.501 | 0.631 | 0.472 | 0.785
23 | CUCCUUCAAACAAUCUGUCUG [Fam1A.1 aminoacylation ribozyme variant] | 2.63 | 0.655 | 0.516 | 0.61 | 0.554 | 1.23
24 | CUCCUUCACACAAUCGGUCUG [Fam1A.1 aminoacylation ribozyme variant] | 1.55 | 0.907 | 0.799 | 0.985 | 0.686 | 0.895
25 | CUCCUUGAAACAAUCGGUCUG [Fam1A.1 aminoacylation ribozyme variant] | 1.25 | 1.1 | 1.31 | 1.19 | 1.18 | 1.73
26 | CUCCUUUAAACAAUCGGUCUG [Fam1A.1 aminoacylation ribozyme variant] | 1.73 | 0.972 | 1.12 | 0.974 | 0.712 | 1.36

Row | Sequence | self-aminoacylation (biotinyl-Phe-oxazolone) | self-aminoacylation (biotinyl-Ile-oxazolone) | self-aminoacylation (biotinyl-Met-oxazolone) | self-aminoacylation (biotinyl-Val-oxazolone) | self-aminoacylation (biotinyl-Leu-oxazolone) | self-aminoacylation (biotinyl-Trp-oxazolone)
27 | CUGCUUCAAACAACCGGUCUG [Fam1A.1 aminoacylation ribozyme variant] | 0.915 | 0.683 | 0.664 | 0.932 | 0.793 | 0.921
28 | CUGCUUCAAACAAUCGGACUG [Fam1A.1 aminoacylation ribozyme variant] | 49.5 | 1.13 | 1.26 | 1.21 | 1.79 | 28.3
29 | CUGCUUCAAACAAUCGGUCGG [Fam1A.1 aminoacylation ribozyme variant] | 183 | 1.48 | 2.05 | 1.71 | 3.72 | 59.6
30 | CUGCUUCAAACAAUCGGUCUA [Fam1A.1 aminoacylation ribozyme variant] | 80.1 | 1.3 | 1.33 | 1.34 | 2.18 | 38.8
31 | CUGCUUCAAACUAUCGGUCUG [Fam1A.1 aminoacylation ribozyme variant] | 1.35 | 0.856 | 0.752 | 1.07 | 0.976 | 0.937
32 | CUGCUUCAAAGAAUCGGUCUG [Fam1A.1 aminoacylation ribozyme variant] | 14.5 | 1.04 | 1.19 | 0.891 | 1.39 | 11.7
33 | CUGCUUCACACAAUCGGUCUG [Fam1A.1 aminoacylation ribozyme variant] | 0.641 | 0.733 | 0.911 | 0.757 | 0.836 | 0.824
34 | CUUACCAUGGUCAUCGAGUGA [Fam2.1 aminoacylation ribozyme variant] | 14.4 | 3.16 | 5.89 | 3 | 5.9 | 7.03
35 | CUUACCCAGGUCAUCGAGUGA [Fam2.1 aminoacylation ribozyme variant] | 4.25 | 3.04 | 4.94 | 3.6 | 4.56 | 5.54
36 | CUUACCCUGGCCAUCGAGUGA [Fam2.1 aminoacylation ribozyme variant] | 9.12 | 2.78 | 2.99 | 2.65 | 4.34 | 3.51
37 | CUUACCCUGGGCAUCGAGUGA [Fam2.1 aminoacylation ribozyme variant] | 20.7 | 2.57 | 5.55 | 3.33 | 7.09 | 6.01
38 | CUUACCCUGGUAAUCGAGUGA [Fam2.1 aminoacylation ribozyme variant] | 24.3 | 3.22 | 6.18 | 3.18 | 7.47 | 8.08
39 | CUUACCCUGGUCAGCGAGUGA [Fam2.1 aminoacylation ribozyme variant] | 29.2 | 3.42 | 4.38 | 3.69 | 6.11 | 7.19
40 | CUUACCCUGGUCAUCGAGCGA [Fam2.1 aminoacylation ribozyme variant] | 1.09 | 1.36 | 2.13 | 1.35 | 1.96 | 2.72
41 | CUUACCCUGGUCAUCGGGUGA [Fam2.1 aminoacylation ribozyme variant] | 93.6 | 5.25 | 16 | 7.68 | 17.1 | 13.9
42 | CUUACCCUGGUUAUCGAGUGA [Fam2.1 aminoacylation ribozyme variant] | 23.2 | 3.35 | 6.78 | 3.58 | 7.11 | 8.54
43 | CUUAUCCUGGUCAUCGAGUGA [Fam2.1 aminoacylation ribozyme variant] | 7.87 | 3.22 | 6.26 | 3.42 | 6.22 | 6.96
44 | CUUCACAUAGGUCAUCGGGUG [Fam2.2 aminoacylation ribozyme variant] | 33 | 3.77 | 5.24 | 3.98 | 6.86 | 5.58
45 | CUUCACCUAGGGCAUCGGGUG [Fam2.2 aminoacylation ribozyme variant] | 17.5 | 2.75 | 2.91 | 3.04 | 3.99 | 4.25
46 | CUUCACCUAGGUCAUCGAGUG [Fam2.2 aminoacylation ribozyme variant] | 9.18 | 4.29 | 5.78 | 4.22 | 7.37 | 4.55
47 | CUUCACCUAGGUCAUCGGGGG [Fam2.2 aminoacylation ribozyme variant] | 3.92 | 2.31 | 2.35 | 2.37 | 1.86 | 3.57
48 | CUUCACCUAGGUCAUCUGGUG [Fam2.2 aminoacylation ribozyme variant] | 4.76 | 1.58 | 1.79 | 1.74 | 2.25 | 2.15
49 | CUUCACCUAGGUCGUCGGGUG [Fam2.2 aminoacylation ribozyme variant] | 9.55 | 2.2 | 2.39 | 2.54 | 2.43 | 2.19
50 | CUUCACCUAGGUGAUCGGGUG [Fam2.2 aminoacylation ribozyme variant] | 20.6 | 3.56 | 3.91 | 3.9 | 4.03 | 4.93
51 | CUUCACCUAGGUUAUCGGGUG [Fam2.2 aminoacylation ribozyme variant] | 12.2 | 3.13 | 5.11 | 3.51 | 4.8 | 3.63
